Assays:
Experiment in all cases: two-hybrid library CCmax;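 note: natural log of median RNA to DNA barcode read ratio; higher means stronger binding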
4H2592-AA = biological target: T1, 4H2592-AA
T1 chain: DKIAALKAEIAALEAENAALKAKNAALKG

4H2611-AA = biological target: T2, 4H2611-AA; details: mean of both orientations
T2 chain: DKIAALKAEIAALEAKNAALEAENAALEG

4H2732-AA = biological target: T3, 4H2732-AA; details: mean of both orientations
T3 chain: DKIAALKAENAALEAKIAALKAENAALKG

4H2774-AA = biological target: T4, 4H2774-AA; details: mean of both orientations
T4 chain: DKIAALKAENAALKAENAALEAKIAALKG

4H2931-AA = biological target: T5, 4H2931-AA; details: mean of both orientations
T5 chain: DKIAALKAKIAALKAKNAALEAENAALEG

4H3001-AA = biological target: T6, 4H3001-AA; details: mean of both orientations
T6 chain: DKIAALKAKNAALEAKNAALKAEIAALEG

4H3015-AA = biological target: T7, 4H3015-AA; details: mean of both orientations
T7 chain: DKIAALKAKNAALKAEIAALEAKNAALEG

4H3073-AA = biological target: T8, 4H3073-AA; details: mean of both orientations
T8 chain: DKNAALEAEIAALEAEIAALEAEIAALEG

4H3340-AA = biological target: T9, 4H3340-AA; details: mean of both orientations
T9 chain: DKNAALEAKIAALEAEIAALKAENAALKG

4H3381-AA = biological target: T10, 4H3381-AA; details: mean of both orientations
T10 chain: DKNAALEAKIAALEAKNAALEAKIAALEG

4H3438-AA = biological target: T11, 4H3438-AA; details: mean of both orientations
T11 chain: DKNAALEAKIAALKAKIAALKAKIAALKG

4H347-AA = biological target: T12, 4H347-AA; details: mean of both orientations
T12 chain: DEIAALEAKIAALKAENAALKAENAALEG

4H3493-AA = biological target: T13, 4H3493-AA; details: mean of both orientations
T13 chain: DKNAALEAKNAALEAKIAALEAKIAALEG

4H376-AA = biological target: T14, 4H376-AA; details: mean of both orientations
T14 chain: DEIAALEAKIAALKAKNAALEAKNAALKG

4H406-AA = biological target: T15, 4H406-AA; details: mean of both orientations
T15 chain: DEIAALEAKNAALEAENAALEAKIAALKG

4H452-AA = biological target: T16, 4H452-AA; details: mean of both orientations
T16 chain: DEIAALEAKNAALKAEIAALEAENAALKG

4H56-AA = biological target: T17, 4H56-AA; details: mean of both orientations
T17 chain: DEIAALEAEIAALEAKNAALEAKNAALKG

4H688-AA = biological target: T18, 4H688-AA; details: mean of both orientations
T18 chain: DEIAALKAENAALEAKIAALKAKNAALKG

4H963-AA = biological target: T19, 4H963-AA; details: mean of both orientations
T19 chain: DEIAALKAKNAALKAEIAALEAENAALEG

4H_APH = biological target: T20, 4H_APH; details: mean of both orientations
T20 chain: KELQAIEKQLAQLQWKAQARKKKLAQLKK

4H_BCR = biological target: T21, 4H_BCR; details: mean of both orientations
T21 chain: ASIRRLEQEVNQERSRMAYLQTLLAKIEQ

4H_GCN4 = biological target: 4H_GCN4
GCN2_T = biological target: GCN2_T

Chain of 4H_GCN4 (chain, as listed by the source): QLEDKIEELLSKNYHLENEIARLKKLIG

interaction score (4H2592-AA): 1.34
interaction score (4H2611-AA): 0.971
interaction score (4H2732-AA): 0.248
interaction score (4H2774-AA): 0.283
interaction score (4H2931-AA): 1.75
interaction score (4H3001-AA): -1.68
interaction score (4H3015-AA): -1.39
interaction score (4H3073-AA): -0.000754
interaction score (4H3340-AA): 0.143
interaction score (4H3381-AA): -1.72
interaction score (4H3438-AA): -0.819
interaction score (4H347-AA): 1.59
interaction score (4H3493-AA): -1.21
interaction score (4H376-AA): 0.226
interaction score (4H406-AA): -1.19
interaction score (4H452-AA): -0.641
interaction score (4H56-AA): -0.726
interaction score (4H688-AA): -1.42
interaction score (4H963-AA): -0.435
interaction score (4H_APH): -1.66
interaction score (4H_BCR): -1.75
interaction score (4H_GCN4): -1.33
interaction score (GCN2_T): -1.04
Binder: DKIAALKAEIAALEAENAALKAKNAALKG [4H2592-AA]

From paper PMC10397247
